Data published in US20180244756A1 (US Dept. of Health and Human Services, published 2018).

Target: T1, MERS-CoV S-[change] protein, England1 strain (MERS-CoV, England1 strain, UniProt K9N5Q8 19-1290)
T1 sequence: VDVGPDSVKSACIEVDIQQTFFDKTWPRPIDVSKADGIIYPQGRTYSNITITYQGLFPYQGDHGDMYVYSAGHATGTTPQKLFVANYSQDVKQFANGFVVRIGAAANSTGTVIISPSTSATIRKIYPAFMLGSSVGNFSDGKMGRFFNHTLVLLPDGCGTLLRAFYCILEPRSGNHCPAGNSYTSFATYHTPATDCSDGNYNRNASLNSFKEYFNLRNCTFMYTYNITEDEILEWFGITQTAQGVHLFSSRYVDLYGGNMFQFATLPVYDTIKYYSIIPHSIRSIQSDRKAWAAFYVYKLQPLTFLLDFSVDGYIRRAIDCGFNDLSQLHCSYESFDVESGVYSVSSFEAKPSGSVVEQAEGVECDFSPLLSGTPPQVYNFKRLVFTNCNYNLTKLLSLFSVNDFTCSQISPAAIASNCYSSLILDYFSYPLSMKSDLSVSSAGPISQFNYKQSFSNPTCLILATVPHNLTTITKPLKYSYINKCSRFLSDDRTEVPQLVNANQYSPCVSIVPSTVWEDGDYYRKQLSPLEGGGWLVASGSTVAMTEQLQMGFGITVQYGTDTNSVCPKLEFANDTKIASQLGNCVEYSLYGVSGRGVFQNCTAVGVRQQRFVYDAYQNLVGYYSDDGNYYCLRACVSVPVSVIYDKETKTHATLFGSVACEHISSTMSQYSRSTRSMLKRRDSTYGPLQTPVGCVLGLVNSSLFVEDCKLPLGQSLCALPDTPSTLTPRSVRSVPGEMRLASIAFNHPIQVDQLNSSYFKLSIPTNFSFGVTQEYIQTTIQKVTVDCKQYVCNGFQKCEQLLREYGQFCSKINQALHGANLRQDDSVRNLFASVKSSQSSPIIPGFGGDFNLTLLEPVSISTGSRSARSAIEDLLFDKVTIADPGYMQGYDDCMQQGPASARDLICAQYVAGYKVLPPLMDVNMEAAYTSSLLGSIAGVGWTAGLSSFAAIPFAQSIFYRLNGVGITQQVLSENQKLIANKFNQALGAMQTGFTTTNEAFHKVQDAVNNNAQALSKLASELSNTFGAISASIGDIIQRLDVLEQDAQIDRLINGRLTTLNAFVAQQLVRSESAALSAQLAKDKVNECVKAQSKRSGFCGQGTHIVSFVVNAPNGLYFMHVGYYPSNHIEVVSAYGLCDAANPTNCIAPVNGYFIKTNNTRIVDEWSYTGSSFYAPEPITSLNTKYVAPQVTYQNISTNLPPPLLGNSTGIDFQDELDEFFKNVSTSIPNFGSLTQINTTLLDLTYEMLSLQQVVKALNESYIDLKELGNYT
Assay: ELISA, hybridoma supernatant

B1: G4 antibody (antibody, V domains shown)
VH: QVQLQQSGPELVRPGVSVKISCKGSGYTFTDYAIHWVKQSHAKSLEWIGVFSTYYGNTNYNQKFKGRATMTVDKSSSTAYMELARLTSEDSAIYYCARKSYYVDYVDAMDYWGQGTSVTVSS
VL: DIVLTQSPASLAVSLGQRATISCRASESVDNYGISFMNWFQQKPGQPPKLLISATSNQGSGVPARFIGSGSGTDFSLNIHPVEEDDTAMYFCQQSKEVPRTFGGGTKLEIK
ELISA (unit not given): 2.8

B2: G2 antibody (antibody, V domains shown)
VH: QVQLQQSGGELVKPGASVKLSCKTSGFTFSSSYISWLKQKPGQSLEWIAWIYAGTGGTEYNQKFTGKAQVTVDTSSSTAYMQFSSLTTEDSAIYYCARGGSSFAMDYWGQGTSVTVSS
VL: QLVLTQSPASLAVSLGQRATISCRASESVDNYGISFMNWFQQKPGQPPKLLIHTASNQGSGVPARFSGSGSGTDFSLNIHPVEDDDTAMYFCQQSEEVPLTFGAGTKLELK
ELISA (unit not given): 0.58
